Measured values: the Human Domainome abundance scans (Beltran et al. 2025)
± gives the uncertainty stated by the source.

B1: Ankyrin-2, residues 3571 to 3650; numbered along this chain, Q01484 (parent)
chain: ERLAYIADHLGFSWTELARELDFTEEQIHQIRIENPNSLQDQSHALLKYWLERDGKHATDTNLVECLTKINRMDIVHLME

Variants of: B1
Assay: abundance fitness (aPCA) (normalised: wild type 0, dead -1); higher = more abundant; growth selection in yeast, the domain comes from the species named
Conditions: Homo sapiens

ERLAYIADHLGFSWTELARELDFTEEQIHQIRIENPNSLQDQSHALLKYWLERDGKHATDTNLVECLTKINRVDIVHLME [M73V] and ERLAYIADHLGFSWTELARELDFTEEQIHQIRIENPNSLQDQSHDLLKYWLERDGKHATDTNLVECLTKINRMDIVHLME [A45D] are within error of each other in abundance fitness: 0.035 ± 0.15 for the first, 0.097 ± 0.29 for the second.

Going from ERLAYIADHLGFSWTELARELDFTEEQIHQIRIENPNSLQDQSHALLKYWLERDGKHATDTNLVEYLTKINRMDIVHLME [C66Y] to ERLAYIADHGGFSWTELARELDFTEEQIHQIRIENPNSLQDQSHALLKYWLERDGKHATDTNLVECLTKINRMDIVHLME [L10G], the abundance fitness falls from -0.27 ± 0.11 to -0.704 ± 0.051.

ERLAYIADHLGFSWTELARELDFTEEQIHQIRIENPNSLQDQSHALLKYWLERDGKHATDTNLVECLTKINRMDITHLME [V76T] and ERLAYIADHLGFSWTELARELDFTEEQIHQIRIENPNSLQDQSHALLKYWLERDGKHATDTNLVECLTKINRMDICHLME [V76C] are within error of each other in abundance fitness: -0.223 ± 0.14 for the first, -0.027 ± 0.18 for the second.

ERLAYIADHLGFSWTELARELDFTEEQIHQIRIENPNSLQEQSHALLKYWLERDGKHATDTNLVECLTKINRMDIVHLME [D41E] and ERLAYIADHLGFSWTELARELDFTEEQIHQIRIENPNSLQDGSHALLKYWLERDGKHATDTNLVECLTKINRMDIVHLME [Q42G] are within error of each other in abundance fitness: -0.077 ± 0.11 for the first, -0.323 ± 0.19 for the second.

ERLAYIADHLGFSWTELARELDFTEEQIHQIRIENPNSLQDQSHALLKYALERDGKHATDTNLVECLTKINRMDIVHLME [W50A] and ERLAGIADHLGFSWTELARELDFTEEQIHQIRIENPNSLQDQSHALLKYWLERDGKHATDTNLVECLTKINRMDIVHLME [Y5G] are within error of each other in abundance fitness: 0.003 ± 0.047 for the first, -0.231 ± 0.45 for the second.

Compared with ERLAYIADHLGFSWTELARELDFTEEQIHQIRIENPNSLQDQSHALLKYWLERDGKHATDTNLVECLTKINRMKIVHLME [D74K], ERLAYIADHLGFSWTELARELDFTEEQIHQIRIENPNSLQDQSHALLKYWLERDGKHATDTNLVECLTKINRMYIVHLME [D74Y] is lower in abundance fitness: -0.348 ± 0.19 for the first, -0.862 ± 0.24 for the second.

First: ERLAYIADHLGFSWTELARELDFTEEGIHQIRIENPNSLQDQSHALLKYWLERDGKHATDTNLVECLTKINRMDIVHLME [Q27G]
Second: ERLAYIADHLGFSWTELARELDFTNEQIHQIRIENPNSLQDQSHALLKYWLERDGKHATDTNLVECLTKINRMDIVHLME [E25N]
The abundance fitness of the first is lower: -0.144 ± 0.06 for the first, 0.108 ± 0.18 for the second.

First: ERLAYIADHLGFSWTELASELDFTEEQIHQIRIENPNSLQDQSHALLKYWLERDGKHATDTNLVECLTKINRMDIVHLME [R19S]
Second: ERLAYIADHLGFSWTELARELDFTEEQIHQIRIRNPNSLQDQSHALLKYWLERDGKHATDTNLVECLTKINRMDIVHLME [E34R]
The abundance fitness of the first is lower: -0.101 ± 0.055 for the first, 0.018 ± 0.047 for the second.

ERLAYIADHLGFSWTELARELDFTEEQIHQIRIWNPNSLQDQSHALLKYWLERDGKHATDTNLVECLTKINRMDIVHLME [E34W] and ERLAYIADHLGFSWTELARELDFTEEQIHQIRIENPNSLQDQSHALLKYWLERDGKEATDTNLVECLTKINRMDIVHLME [H57E] are within error of each other in abundance fitness: -0.022 ± 0.33 for the first, 0.101 ± 0.13 for the second.

ERLAYIADHLGFSWTELARELDFTEEQIHQIRIENPNSLQDQSHALLKYWLERDGKMATDTNLVECLTKINRMDIVHLME [H57M] and ERLAYIADHLGFSWTELARELDFTEEQIHQIRIENPNSLQDQSHALLKYWLERDGKGATDTNLVECLTKINRMDIVHLME [H57G] are within error of each other in abundance fitness: 0.004 ± 0.085 for the first, -0.019 ± 0.052 for the second.

ERLAYIADHLGFSWYELARELDFTEEQIHQIRIENPNSLQDQSHALLKYWLERDGKHATDTNLVECLTKINRMDIVHLME [T15Y] and ERLAYIADHLGFSWTELARELDFTEEQIHQINIENPNSLQDQSHALLKYWLERDGKHATDTNLVECLTKINRMDIVHLME [R32N] are within error of each other in abundance fitness: -0.433 ± 0.43 for the first, -0.206 ± 0.15 for the second.

First: ERLAYIADHLGFSWTELARELDFTEEQIHQIKIENPNSLQDQSHALLKYWLERDGKHATDTNLVECLTKINRMDIVHLME [R32K]
Second: ERLAYIADHLGFSWTELARELDFTEEQIHQIIIENPNSLQDQSHALLKYWLERDGKHATDTNLVECLTKINRMDIVHLME [R32I]
The abundance fitness of the first is higher: 0.177 ± 0.22 for the first, -0.339 ± 0.22 for the second.

ERLAYIADHLGFSWTELARELDATEEQIHQIRIENPNSLQDQSHALLKYWLERDGKHATDTNLVECLTKINRMDIVHLME [F23A] and ERLAYIADHLGFSWTELARELDFTEEQIHQIRIENPNSLQDQSHALLKYWLERDGKHITDTNLVECLTKINRMDIVHLME [A58I] are within error of each other in abundance fitness: -0.177 ± 0.092 for the first, -0.294 ± 0.12 for the second.

Going from ERMAYIADHLGFSWTELARELDFTEEQIHQIRIENPNSLQDQSHALLKYWLERDGKHATDTNLVECLTKINRMDIVHLME [L3M] to ERAAYIADHLGFSWTELARELDFTEEQIHQIRIENPNSLQDQSHALLKYWLERDGKHATDTNLVECLTKINRMDIVHLME [L3A], the abundance fitness falls from 0.028 ± 0.095 to -0.164 ± 0.065.

Compared with ERNAYIADHLGFSWTELARELDFTEEQIHQIRIENPNSLQDQSHALLKYWLERDGKHATDTNLVECLTKINRMDIVHLME [L3N], ERLAYIADHLGFSWTELTRELDFTEEQIHQIRIENPNSLQDQSHALLKYWLERDGKHATDTNLVECLTKINRMDIVHLME [A18T] is lower in abundance fitness: -0.074 ± 0.26 for the first, -0.903 ± 0.35 for the second.

ERLAYIADHLIFSWTELARELDFTEEQIHQIRIENPNSLQDQSHALLKYWLERDGKHATDTNLVECLTKINRMDIVHLME [G11I] and ERLAYIADHLGFSWTELARELDFTEEQHHQIRIENPNSLQDQSHALLKYWLERDGKHATDTNLVECLTKINRMDIVHLME [I28H] are within error of each other in abundance fitness: -0.271 ± 0.28 for the first, -0.668 ± 0.14 for the second.

Compared with ERLAYIADHLGFSWTELARELDFTEEQIHQIRIENPNSLQDQSHALLKYWLERDGKHATDTNLVFCLTKINRMDIVHLME [E65F], ERLAYIADHLGFSWTELARELDFTEEQIHQARIENPNSLQDQSHALLKYWLERDGKHATDTNLVECLTKINRMDIVHLME [I31A] is lower in abundance fitness: -0.184 ± 0.17 for the first, -0.545 ± 0.084 for the second.

Work on ERLAYIADHLGFSWTELARELDFTEEQIHQMRIENPNSLQDQSHALLKYWLERDGKHATDTNLVECLTKINRMDIVHLME [I31M] yielded an abundance fitness of -0.177 ± 0.12.
